# Literature values in patent US11229683B2, “Hematopoietic growth factor proteins and analogs thereof and angiotensin converting enzyme inhibitors for treatment of radiation exposure” (priority 2015, dated 2022).
# Where two headings read alike, the source gives them in different places.
# B1: G-CSF: human G-CSF (filgrastim (Neupogen, Amgen, Inc.) (protein, listed as Homo sapiens)
# chain: TPLGPASSLPQSFLLKCLEQVRKIQGDGAALQEKLCATYKLCHPEELVLLGHSLGIPWAPLSSCPSQALQLAGCLSQLHSGLFLYQGLLQALEGISPELGPTLDTLQLDVADFATTIWQQMEELGMAPALQPTQGAMPAFASAFQRRAGGVLVASHLQSFLEVSYRVLRHLAQP
# Columns and labels:
# [1] = test system: chemotherapy (cyclophosphamide)-treated rats; details: single injection; cited from earlier work
# irradiated monkeys = details: cited from earlier work; for survival versus vehicle: daily sc treatment started 48 h post-TBI
molecule,measurement,setting,value
B1,recovery from neutropenia,[1],ineffective
same,60-day survival of rhesus monkeys,"irradiated monkeys; daily sc 0.01 mg/kg/day for 16-23 days, started 24 h post-TBI",increased 60-day survival
same,survival of irradiated monkeys,"irradiated monkeys; daily sc beginning 24 h post-TBI for about 16 days, placebo 50%",80%
same,survival versus vehicle,irradiated monkeys,did not increase survival
same,survival versus vehicle,irradiated monkeys; listed as filgrastim,but not when administered at 48 h post-TBI
